Data reported in patent US20250163139A1 (Hoffmann-La Roche, published 2025).

T1: cynomolgus monkey IL6 (cynomolgus monkey, UniProt P79341 28-212, limits assumed)
T1 construct: also called cynomolgus IL6; cyIL-6
T1 sequence (looked up): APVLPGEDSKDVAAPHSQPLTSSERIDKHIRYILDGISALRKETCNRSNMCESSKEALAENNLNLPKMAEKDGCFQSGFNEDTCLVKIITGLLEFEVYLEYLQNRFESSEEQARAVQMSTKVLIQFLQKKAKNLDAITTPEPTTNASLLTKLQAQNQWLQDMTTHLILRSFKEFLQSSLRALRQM

T2: human VEGF121 (human, UniProt P15692 181-395)
T2 construct: The limits of the proteins used (Humanzyme HZ-1206); also called human VEGFA121
T2 sequence: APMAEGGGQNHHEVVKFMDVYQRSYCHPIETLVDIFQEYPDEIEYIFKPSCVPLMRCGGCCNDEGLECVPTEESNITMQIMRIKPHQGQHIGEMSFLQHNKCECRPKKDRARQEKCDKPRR

B1: VH6L-BM (Fab, V domains shown)
VH: YYQLVESGGGLVQPGGSLRLSCAADGFLFSGYAMSWIRQAPGKGLEWIGQISGSGGSTVYNYNVLGRFTISRDNSKNTLYLQMNSLRAEDTAVYYCARDTGYFDHWGQGTLVTVSS
VL: NIQKTQSPSSLSASVGDRVTITCRALWHISSYLAWYQQKPGKAPKLLIYAASHLHYGVPSRFSGSGSGTDFTLTISSLQPEDFATYYCQQYSGLPYTFGQGTKVEIK
notes: Prior art control, prepared by recombinant expression; also called bispecific antibody VH6L of WO2012/163520
B2: 6HVL_4 (Fab, V domains shown)
VH: YPQLVESGGGLVQPGGSLRLSCEASVLFKHQDMSWVRQAPGKGLEWVGSIDPRGDHKYYNTKFIDRFTISRDNSKNTLYLQMNSLRAEDTAVYYCARDLDFMDEWGQGTLVTVSS
VL: AIYMHQEPSSLSASVGDRVTITCQASYWLNSELAWYQQKPGKAPKLLIYDGDDRYPEVPSRFSGSGSHEDYTLTISSLQPEDFATYYCQQYRYTPYTFGQGTKLEIKR
notes: Bispecific Fab; also called VEGF/IL6-bispecific antibody 6HVL_4
B3: 6HdL2.05 (Fab, V domains shown)
VH: YPQLVESGGGLVQPGGSLRLSCEASVLFKHQDMSWVRQAPGKGLEWVGSISPSGGSTYYNDNVLGRFTISRDNSKNTLYLQMNSLRAEDTAVYYCARDLDFMDEWGQGTLVTVSS
VL: DIQMTQSPSSLSASVGDRVTITCRASQGISNYLAWYQQKPGKAPKLLIYDGDDRYPEVPSRFSGSGSGTDFTLTISSLQPEDFATYYCQQYYSTPYTFGQGTKLEIKR
notes: also called monospecific anti-IL6 antibody 6HdL2.05
B4: 6HVL_4_YHE (Fab, V domains shown)
VH: YPQLVESGGGLVQPGGSLRLSCEASVLFKHQDMSWVRQAPGKGLEWVGSIDPRGDHKYYNTKFIDRFTISRDNSKNTLYLQMNSLRAEDTAVYYCARDLDFMDEWGQGTLVTVSS
VL: AIQMTQSPSSLSASVGDRVTITCQASYWLNSELAWYQQKPGKAPKLLIYDGDDRYPEVPSRFSGSGSHEDYTLTISSLQPEDFATYYCQQYRYTPYTFGQGTKLEIKR

What was measured:
[1] = target: T3, human IL6 (human, UniProt P05231 30-212); assay: SPR, Fab captured on anti-Fab chip, human IL6 as analyte
T3 construct: also called Interleukin-6
Procedure: (§1) A Human Fab Binder (28958325, Cytiva) was diluted at a final concentration of 10 μg/ml in 10 mM sodium acetate buffer, pH 5.0 and immobilized on a CM5 sensor chip using standard amine coupling chemistry. […] The reference channel was treated accordingly.
(§2) Prior to the protein measurements five startup cycles were performed for conditioning purposes. On each cycle, HBS-EP+ buffer was flowed for 120 s followed by the regeneration of the derivatized chip surface by applying 10 mM Glycine buffer pH2.0 for 60 s. Fab fragment at a concentration of 75 nM was captured on this surface for 60 s at a flow rate of 10 μl/min in HBS-EP+ buffer. No Fab fragment was applied to the reference channel. […] Regeneration of the derivatized chip surface was achieved as described above. Data were evaluated with 8K Evaluation software (Biacore Insight Evaluation 3.0). Double referencing was used and the 1:1 Binding model was used to fit the raw data.

[2] = target: human VEGF165 (human, UniProt P15692-4 27-191); assay: competition ELISA: Fab titrated against 10 pM VEGF165, free VEGF detected on plate-coated VEGF-R1
Procedure: (§3) The contact time between the Fab-Antigen mixture and the receptor-coated plate was restricted to 10 min at RT in order to minimize interference with the binding equilibria. […] The latter is detected exploiting the chromogenic conversion of the HRP substrate 3,3′,5,5′-tetramethylbenzidine TMB to 3,3′,5,5′-tetramethylbenzidine […], which can be followed by a change in absorbance at 450 nm. TMB was prewarmed to room temperature and incubated on the plate for 5 min before being quenched by the addition of IN H₂SO₄.

[3] = target: T1, cynomolgus monkey IL6; assay: SPR, Fab captured on anti-Fab chip, cynomolgus IL6 as analyte
Procedure: as §1, §2

[4] = target: human VEGF-A (isoform not given) (human, UniProt P15692-4 27-191, limits assumed); assay: cell-based or functional assay
[5] = target: T3, human IL6; assay: cell-based or functional assay
[6] = target: T2, human VEGF121; assay: competition ELISA: Fab titrated against 10 pM VEGF121, free VEGF detected on plate-coated VEGF-R1
Procedure: as §3

[7] = target: T1, cynomolgus monkey IL6; assay: SPR in analogy to Example 3, Fab captured on anti-Fab chip
Procedure: as §1, §2

[8] = target: T3, human IL6; assay: as above
Procedure: as §1, §2

Row | Binder | Kd [1] | IC50 [2] | Kd [3] | IC50, inhibition of VEGF-A-induced HUVEC proliferation (alamarBlue) [4] | IC50, inhibition of IL-6/IL-6R-induced ICAM-1 surface expression on HRMECs (flow cytometry) [5] | IC50 [6] | Kd [7] | Kd [8]
1 | B1 | 3500 pM |  |  |  |  |  |  | 
2 | B2 | 69 pM | 111 pM | 1480 pM | 2060 pM | 1520 pM | 458 pM |  | 
3 | B3 |  |  |  |  |  |  | 1300 pM | 22 pM
4 | B4 | 65 pM | 135 pM | 1390 pM |  |  | 528 pM |  | 
